Source: the DeepSol protein solubility set

Assay: soluble on expression in E. coli; label from the status in PepcDB or PDB records

| Sequence | soluble on expression in E. coli |
| --- | --- |
| MDYGMYFFEHVTPYETLVRRMERVIASGKTPFQDYFLFESKGFGKVLILDKDVQSTERDEYIYHETLVHPAMLTHPEPKRVLIVGGGEGATLREVLKHPTVEKAVMVDIDGELVEVAKRHMPEWHQGAFDDPRAVLVIDDARAYLERTEERYDVVIIDLTDPVGEDNPARLLYTVEFYRLVKAHLNPGGVMGMQAGMILLTHHRVHPVVHRTVREAFRYVRSYKNHIPGFFLNFGFLLASDAFDPAAFSEGVIEARIRERNLALRHLTAPYLEAMFVLPKDLLEALEKETMVSTDQNPFYVTPEGEARQAPYKG | soluble |
| MGSDKIHHHHHHMEETVQRIEPARLEDVAEPISDALAELSASSAVLGAKLHPRTAANLADLVRIMNTYYSNLIEGHNTRPRDIERALAGEFDKDQERRNLQVEAAAHVRLQGEIDRLAAEGQLPEPASLDFLRWLHAEFYRDADEAMLRIRGPDREFLMVPGRWRSQPEHDVTVGRHQPPSSDRVEAFMEHFASRYRFQRTGKAARILAIPAAHHRFNYIHPFPDGNGRVSRLMSHAMAHEAGIAAHGLWSISRGLARGLESRGDYKRMMDHADMPRQGDRDGRGNLSMRALADFTLWFLRVCIDQVSFMSSLFDLNQLARRLQRFVQRYDLKPEAFRLLEEALLRGEFDRGEASRIAGLPERTARRVFTEVLELGLLASDTPKGPVSLRFPVDTLDELFPKLFPET | not soluble |
| MKKAAVSGRLYEVFDVFADKALAGNPLAIVHDCEGLTDACMQAIAREFNLSETVFIHAPANPAHEASVRIFTPAYELPFAGHPTVGAAVSLARRQKTGDETDRLVTLEEKVGIVRCGVILGENSAFAEFDLPRLPEQVDVKIEREEAAAAIGLGTHEIGFENHVPGVWSAGTPCLLVPVHNLIAAAKVSIDPVYVSESLPHVGGRPLPIYVYCRETILFNSHFHARMFVIGANVYEDPATGSAVAAFAGMIQQNDKPVDGSSQWWIEQGMEMGRPSRIRLELDVSKQKLVSARIGGTAVKIAEGRLFVLEHHHHHH | not soluble |
| MGSDKIHHHHHHLQVEKNVVISEFIVNMEDVLYHRDNTDVNIAEKVAEQTASLAHYGVAHYVLTNATNQQDSDNLHIVQTDLFEHYPKLTLYFYRILMAFDFLQAHPEIEKAALTDAGDVKMLNYPFDAVEDGILYMGDETIFIYDTSILIGYDGPQFIKDFIWENGHLPILNLGIMVGTRETLIEYLGIMVKLITEAELSLAQGNDEAFLGTYKMAISNYVAYYYFKDRLVHGNQVSTIFHGEQMVSGAWFKHK | not soluble |
| IGDVNLTLRGNFTYSKSEILEYDEEYSNYPYKSQRGFRVDQTRGLIALGLFKDYDDIRNSPKQSWGDVMPGDIKYADVNGDGYVNDNDIVPIGATTRPNLVYGFGLSGQWKGIDINVLFQGSGKSTFCIDGPTVYPFENGDWGNILTDVVKSNRWILGENEDPNAKYPRLSYGGNSNNYRASTYWLRNGSYLRLKNLEIGYTIPKSLVNKMHLNNIRIYFMGTNLVTFSSFKLWDPELGSSNGQKYPLSKSYTLGLTINI | not soluble |
| MNRILLYVHFNKYNKISAHVYYQLEQMRSLFSKIVFISNSKVSHEDLKRLKNHCLIDEFLQRKNKGFDFSAWHDGLITMGFDKLEEFDSLTIMNDTCFGPIWEMAPYFENFEEKKAVDFWGITNNRGTKAFKEHVQSYFMTFKNQVIQNKVFQQFWQSIIEYENVQEVIQHYETQLTSILLNEGFSYQTVFDTRKAESSFMPHPDFSYYNPTAILKHHVPFIKVKAIDANQHIAPYLLNLIRETTNYPIDLIVSHMSQISLPDAKYLLSQKYLNCQRLAKQTCQKVAVHLHVFYVDLLDEFLTAFEDWNFHYDLFITTDSDIKRKEIKEILQRKGKTADIRVTGNRGRDIYPMLLLKDKLSQYDYIGHFHTKKSKEADFWAGESWRKELIDMLVKPADSILSAFETDDIGIIIADIPSFFRFNKIVNAWNEHLIAQEMMSLWRKMDVKKQIDFQAMDTFVMSYGTFVWFKYDALKSLFDLELTQNDIPSEPLPQNSILHAIERLLVYIAWGNSYDFRIVKNPYELTPFIDNKLLNLREDEGAHTYVNFNQMGGIKGALKYIIVGPAKAMKYIFLRLMEKLKLEHHHHHH | soluble |
| PFSFFHWIFIHPESHTESEISEIITHEETHARQYHSADVLVSEIMCTFCWFNPFVWLMKREVRGNLEYMADHRVLETGHDSKSYQYHLL | not soluble |
| MGPNHPCGYLPGRDARFTYVSPAYPLSPQSYRGLLEEGFRRSGNWVYRPCCIGCSACLPVRLPVHDFRLTRSHRRVIKRNADIDIRVSVARFDERQFQLYVRYLAARHPTDTPVSRDDYWSFVSSSWAQTRFVEFRSYSELIGVAVVDHVPGALSAVYTFFDPDAAERSPGSLAILWQILEARRLGREWLYLGYWIGGCRKMEYKARYRPLEALIANRWRRFQVDEPLTSSVLLEHHHHHH | soluble |
| MTTTLSPDTARQIVPPEERYAAELAFLAAYDDGPRPPAWRLTPRAVVTFVMGSDGRALRLPEGAETPEGVPRRLTVEGKFVGDRSLVERCVVTLAGERGLLLVGEPGTAKSMLSELLSAAVCGTSGLVVQGTAGTTEDQLKYGWNYALLLAQGPSRTALVPSPVLTAMARGGIARVEEVTRCLPEVQDALVSLLSERRIAVPELSGTDDALAHAAPGFNLIATANLRDKGVSEMSAALKRRFNFETVGPIPDLDAETALVRSQARASVERAGAPFKVDEAVLEALVVAFRDLREGRSTEGWEVERPSTVMSTAEAVSVAGALGLAAAYFPGDRDVLGLLPGHLLGVVRKDDPADAARLRGYWDGPVRRRAEQGSATWRTLWDLRTVLEGLEHHHHHH | not soluble |
| MAHHHHHHMAPLKTQAPSNRSLLGYPLRRAAAMEMLYGGICIQHLAQPPFPLRTIQSESLPPPSLQGERDDLELEVKDSTGNVMGYRLFPVNIGIRARTESVRVRSEDCYKRFLAQKHCAAAGVPLQFPAPSSITNSNCLATPRAASHFHPPSSSLSLFTRPADSQGGDVGRTTPADVAAYHPRAWRPYQMLKPMPHNWGPAVRSSGVRGPHMQLLQERIDKKGFGWKRKSRSLWQQDISTAGFRPKRYF | not soluble |
| MGSDKIHHHHHHMGLFDFLKKGLQKTKETFFGRVVKLLKGKKLDDETREELEELLIQADVGVETTEYILERLEEKDGDALESLKEIILEILNFDTKLNVPPEPPFVIMVVGVNGTGKTTSCGKLAKMFVDEGKSVVLAAADTFRAAAIEQLKIWGERVGATVISHSEGADPAAVAFDAVAHALARNKDVVIIDTAGRLHTKKNLMEELRKVHRVVKKKIPDAPHETLLVIDATTGQNGLVQAKIFKEAVNVTGIILTKLDGTAKGGITLAIARELGIPIKFIGVGEKAEDLRPFDPEAFVEVLLSE | soluble |
| MSLRRPYEALRGHFEKCLATPLRPMNLRTLAGNDKGYIHTAVEQLGARTARSYRAIYSEVQKRSLDREINARLSPLESICRREFECCVELSELAEVYLRKMERGEICDADTSQPNEIIDDAQVDSIMKGEGYGGSGNSGGDSSVKRLIDVLESLRPHENLFDIVVNEEWICSPNFNNWLSRFCTRRVSWRVIHEHLLHLVGPGRYSPIIRTDPNVGSILRHTGTVVVEQYVRSIQSIHGGSMFIHMEEQPDLFTRVPSGRLATSSKVDCPIFPTTSMPPAPSSRVIYSVEGHLEYVFRELMKNACLAMRSRTNSIELQVCFASNDTHVVVDVTDAAGGIAPDAVEKLWLFGWTTNSSFDNKMGGFGIGLPASKCYMDLWGGRIDLYTTEGVGTTVRVIFPKAPTEVFVPKGTEGHHHHHH | soluble |
| MSNICKTVSLRTRKIKDGHMLSYYLDYYPGYRDESTMKVIRHESLGIYIYAKPKNQMEQKYNLNLMARAEAIRCRRFEAIVNERYDFFDKEKMKGDFLAYFKKLADKKNSKWQHVYMHFRTFTQGKCTFGEINVDLCNRFREYLLTAPQGLHKNRKLHINSAANYWSTFRASIHTAYRDRKIKENPNGFLERIETIPTDKEHLSQDEVIRLASTPCSAPALKRAFLFSCLTALRKSDIKKLTWEEIQPYGSDGVMYVTTRMQKTKDIVHNPISEEALELIGYSPDKRGKVFPDFK | not soluble |
| MGHHHHHHSHMNGEIMDDSLKTSLITEEEDSTSEVLDEELKLQPFNSSEDSTNLVPLVVESSKPPEVDAPDKTPRIPDSEMLMDEGTSDEKGHMEEKLSLLPRKKAHLGSSDNVATMSNEERSDGGFPNSVIAEFSEEPVSENLSPNTTSSLEDQGEEGVSEPQETSTALPQSSLIEVELEDVPFSQNAGQKNQSEEQSEASSEQLDQFTQSAEKAVDSSSEEIEVEVPVVDRRNLRRKAKGHKGPAKKKAKLT | not soluble |
| AMEDELKILIGKMRYRSSFGQNALQHSKEVALLAGLIAEQLGGDKKLARRAGILHDIGKALTQELGRDHVNLGVEVCKRHKEDPVVINAIYAHHGHEEILSVECASVCAADALSAGRPGARRKSDEEYAKRMQALEEIALEFDGVEKAYAMESGRELRVIVKSNQ | not soluble |
| GPGSDVFFSGYLNKLKGGDNHSWKKRYLQVQKGHFIMSDKESDTEGKALSLEHIQSVCPVPVSTAKREHVFALHTTSGKSMWFEAASLENMEEWIHAIQCGLGVA | soluble |
| MAHHHHHHMNEKGNFMKKAYKNNNIQLSENQINQRIKNVNLTKRLICYERYLKAIPKIERRNDLKNSWHPETPRYNKQISLSQWNKELKKWRKQIHAWGNISEEDHRYICKLSYTDKYKYLCNLKMPELSNLEIKNMKKENEEISHDILKHILLIQNKHNNPFDENDKIMYQPIFFLPENFSGTVVHNEFVIIKEQNMEKYLTLLKDKYKDKYNYCFKKYYELYLLNKDSDNKNVENSKNTIPKNGKNHIVIYLGKETKPLNYKNKEAQYEQKEKMEAYNFLCGSTKKYENHNKMNKRKKF | not soluble |
| MGSDKIHHHHHHSGKLRKSNESGAMRAFRDGEVTIMVNVNLFTEGIDLPGVDVCIMLRPTASLSLYLQFAMRALNPRDGKRAILIDHVGNHIRHGLPNDDRYWTLEGVDKRKSSSKEKEEAPKTCENCFATFYRDRIVDGKCPYCGEPLKIIKDIEKEATNETLTLINQGMEFVSIRGEMIEVTREEALVYKRVKRYGKKYERCESLAELKAFRIIHGYAPGWLWHKQKELNLWRN | not soluble |
| MPESSRDKGNAAISGNRSVLSIASPTKLNILSSDWSRNQGKVSKNSLKRSSSLNIRNSKRPSLQASANSIYSRPKITIGAPPLIRRDSSFFKDEFDAKKDKATFSAYSSRSYPTIGSESVVSQTSLSQPTTSREVDEQFTVAADRYIPILQGASQNKVDPETLHEALPPPNASPISHLRAQTKIVFKQNVAEACGLDMNKRILQYMPEPPKCSSLRQKSYIMKKRTHYSYQQEQKIPDLIKLRKINTNPERILDAPGFQDDFYLNLLSWSKKNVLAIALDTALYLWNATTGDVSLLTDFENTTICSVTWSDDDCHISIGKEDGNTEIWDVETMSLIRTMRSGLGVRIGSLSWLDTLIATGSRSGEIQINDVRIKQHIVSTWAEHTGEVCGLSYKSDGLQLASGGNDNTVMIWDTRTSLPQFSKKTHTAAVKALSWCPYSPNILASGGGQTDKHIHFWNSITGARVGSINTGSQVSSLHWGQSHTSTNGGMMNKEIVATGGNPENAISVYNYETKFKVAEVVHAHEARICCSQLSPDGTTLATVGGDENLKFYKIFDPRCTGRSREDGLMDGMLGLIGKEGCRTNDKENRSKNSSEIHTRRPSSTSQYLIR | not soluble |
